# The supplement of paper PMC7877785
# ± gives the uncertainty stated by the source.
# Test: self-splicing fitness, log relative to wild type (ln ratio); higher = more splicing; Tetrahymena group I intron in knt gene, E. coli kanamycin selection, DiMSum; sequences stand for … in CUCUCU…GGAGGGAAAAGUUAUCAGGCAUGCACCUGGUAGCUAGUCUUUAAACCAAUAGAUUGCAUCGGUUUAAAAGGCAAGACCGUCAAAUUGCGGGAAAGGGGUCAACAGCCGUUCAGUACCAAGUCUCAGGGGAAACUUUGAGAUGGCCUUGCAAAGGGUAUGGUAAUAAGCUGACGGACAUGGUCCUAACCACGCAGCCAAGUCCUAAGUCAACAGAUCUUCUGUUGAUAUGGAUGCAGUUCACAGACUAAAUGUCGGUCGGGGAAGAUGUAUUCUUCUCAUAAGAUAUAGUCGGACCUCUCCUUAAUGGGAGCUAGCGGAUGAAGUGAUGCAACACUGGAGCCGCUGGGAACUAAUUUGUAUGCGAAAGUAUAUUGAUUAGUUUUGGAGUACUCGUGGUCG
# Summary of the method: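 Pooled colonies went to amplicon sequencing on an Illumina HiSeq 2500 after six replicate transformations. The plates were LB agar with 100 μg/mL carbenicillin, 50 μM IPTG and 0.2% rhamnose, with or without 25 μg/mL kanamycin, incubated overnight at 37°C or 30°C. The E. coli BL21(DE3) library had all eight P1ex-region intron nucleotides randomised, the intron placed in the knt kanamycin-resistance gene on pET-22b(+). DiMSum fitness is the error-weighted combination of replicate fold changes, kanamycin against none, normalised to wild type.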
Sequence,self-splicing fitness (ln) (30 °C),self-splicing fitness (ln) (37 °C)
AUGGAGCAAUAUUACGGUCC,-3 ± 0.32,-0.466 ± 0.31
AUGGAGCAAUAUUACGGUGG,-4.09 ± 0.3,-2.17 ± 0.27
AUGGAGCAAUAUUACGUACU,-0.848 ± 0.16,-0.491 ± 0.18
AUGGAGCAAUAUUACGUCAU,–,-1.33 ± 0.27
AUGGAGCAAUAUUACGUGAG,-2.31 ± 0.14,-2.09 ± 0.15
AUGGAGCAAUAUUACGUGGA,-4.25 ± 0.4,-1.78 ± 0.29
AUGGAGCAAUAUUACGUGGC,-2.39 ± 0.29,-2.39 ± 0.38
AUGGAGCAAUAUUACGUGGU,-3.08 ± 0.17,-1.35 ± 0.23
AUGGAGCAAUAUUACGUGUG,–,-2.69 ± 0.24
AUGGAGCAAUAUUACGUUAA,-2.58 ± 0.22,-1.59 ± 0.23
AUGUAGCAAUAUUACGAAAG,-2.59 ± 0.23,-2.2 ± 0.26
AUGUAGCAAUAUUACGACCG,-0.834 ± 0.12,-0.5 ± 0.17
AUGUAGCAAUAUUACGACUA,-0.419 ± 0.27,-0.536 ± 0.31
AUGUAGCAAUAUUACGAGAU,-2.04 ± 0.14,-0.409 ± 0.13
AUGUAGCAAUAUUACGAGGA,-3 ± 0.41,-2.11 ± 0.43
AUGUAGCAAUAUUACGAUAG,-2.48 ± 0.19,-2.67 ± 0.27
AUGUAGCAAUAUUACGAUGU,-0.753 ± 0.064,-0.0629 ± 0.087
AUGUAGCAAUAUUACGAUUG,-1.21 ± 0.15,-3.05 ± 0.38
AUGUAGCAAUAUUACGCAGG,-2.06 ± 0.22,-1.7 ± 0.19
AUGUAGCAAUAUUACGCCGG,-2.45 ± 0.17,-0.942 ± 0.33

Sequence,self-splicing fitness (ln) (30 °C),self-splicing fitness (ln) (37 °C)
AUGUAGCAAUAUUACGCCUG,-1.33 ± 0.23,-0.722 ± 0.21
AUGUAGCAAUAUUACGCGCA,-0.46 ± 0.16,-0.226 ± 0.15
AUGUAGCAAUAUUACGCGGU,-2.3 ± 0.15,-1.58 ± 0.2
AUGUAGCAAUAUUACGCUAA,-1.75 ± 0.12,-0.814 ± 0.13
AUGUAGCAAUAUUACGGAGG,-3.57 ± 0.23,-2.57 ± 0.23
AUGUAGCAAUAUUACGGCGA,-0.117 ± 0.088,-0.00452 ± 0.11
AUGUAGCAAUAUUACGGCUA,-2.45 ± 0.22,-2.14 ± 0.25
AUGUAGCAAUAUUACGUAAA,-2.25 ± 0.25,-1.9 ± 0.26
AUGUAGCAAUAUUACGUAGC,-2.56 ± 0.18,-2.43 ± 0.29
AUGUAGCAAUAUUACGUGUA,-2.47 ± 0.11,-1.74 ± 0.089
AUGUAGCAAUAUUACGUUAU,-2.41 ± 0.22,-2.12 ± 0.22
AUUAAGCAAUAUUACGAAAA,-1.27 ± 0.16,-1.5 ± 0.18
AUUAAGCAAUAUUACGAAAC,-3.37 ± 0.16,-1.6 ± 0.15
AUUAAGCAAUAUUACGAAAG,-1.89 ± 0.15,-1.23 ± 0.16
AUUAAGCAAUAUUACGAACC,-1.35 ± 0.29,-0.847 ± 0.29
AUUAAGCAAUAUUACGACAC,-0.804 ± 0.13,-0.46 ± 0.14
AUUAAGCAAUAUUACGAGAC,-3.39 ± 0.48,-1.46 ± 0.27
AUUAAGCAAUAUUACGAGUA,-2.07 ± 0.16,-1.49 ± 0.13
AUUAAGCAAUAUUACGCAGG,-2.22 ± 0.19,-0.608 ± 0.2
AUUAAGCAAUAUUACGCGCA,-0.661 ± 0.13,0.376 ± 0.16

Sequence,self-splicing fitness (ln) (30 °C),self-splicing fitness (ln) (37 °C)
AUUAAGCAAUAUUACGCGGA,-2.44 ± 0.2,-0.491 ± 0.15
AUUAAGCAAUAUUACGCGUG,-0.804 ± 0.067,-0.697 ± 0.081
AUUAAGCAAUAUUACGCUCG,-0.344 ± 0.11,0.171 ± 0.15
AUUAAGCAAUAUUACGCUCU,-0.588 ± 0.18,0.11 ± 0.16
AUUAAGCAAUAUUACGCUUA,-2.18 ± 0.26,-1.82 ± 0.25
AUUAAGCAAUAUUACGGAAU,-1.3 ± 0.14,-1.3 ± 0.18
AUUAAGCAAUAUUACGGACG,-1.18 ± 0.12,-0.721 ± 0.14
AUUAAGCAAUAUUACGGAGG,-2.32 ± 0.16,-1.42 ± 0.27
AUUAAGCAAUAUUACGGUCU,-0.183 ± 0.15,0.0171 ± 0.15
AUUAAGCAAUAUUACGUAAC,-2.12 ± 0.12,-1.88 ± 0.14
AUUAAGCAAUAUUACGUACU,0.0206 ± 0.094,0.125 ± 0.12
AUUAAGCAAUAUUACGUAGA,-2.39 ± 0.15,-0.947 ± 0.15
AUUAAGCAAUAUUACGUUAC,-2.99 ± 0.26,-1.16 ± 0.27
AUUAAGCAAUAUUACGUUUA,-1.61 ± 0.14,-1.54 ± 0.15
AUUCAGCAAUAUUACGAAUC,-2.12 ± 0.2,-0.519 ± 0.32
AUUCAGCAAUAUUACGAAUU,-3.71 ± 0.15,-2.29 ± 0.16
AUUCAGCAAUAUUACGACCG,0.174 ± 0.18,-0.187 ± 0.27
AUUCAGCAAUAUUACGACUG,-1.47 ± 0.13,-0.646 ± 0.15
AUUCAGCAAUAUUACGAUAG,-3.99 ± 0.42,-2.57 ± 0.26
AUUCAGCAAUAUUACGAUAU,-0.41 ± 0.057,0.146 ± 0.079
